In US20180140737A1, “HAEMOSTATIC MATERIAL” (HAEMOSTATIX LIMITED, priority 2015, published 2018):

Experiments:
fibrinogen [1] = molecular target: T1, fibrinogen (Homo sapiens, UniProt P02675+P02679); settings: cited from earlier work
T1 sequence (P02679 27-453): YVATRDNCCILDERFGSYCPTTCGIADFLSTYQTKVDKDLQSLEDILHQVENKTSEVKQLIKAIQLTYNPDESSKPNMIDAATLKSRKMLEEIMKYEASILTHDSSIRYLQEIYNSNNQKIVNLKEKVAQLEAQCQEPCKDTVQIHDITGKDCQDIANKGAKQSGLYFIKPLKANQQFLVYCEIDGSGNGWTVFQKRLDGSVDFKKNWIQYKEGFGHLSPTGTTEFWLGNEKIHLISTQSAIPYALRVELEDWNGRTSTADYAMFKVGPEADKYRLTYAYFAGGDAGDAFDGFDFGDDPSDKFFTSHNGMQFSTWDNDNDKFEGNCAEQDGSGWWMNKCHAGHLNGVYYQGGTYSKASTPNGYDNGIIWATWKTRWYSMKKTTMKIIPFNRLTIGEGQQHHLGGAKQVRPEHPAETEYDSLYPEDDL
T1 sequence (P02675 31-491): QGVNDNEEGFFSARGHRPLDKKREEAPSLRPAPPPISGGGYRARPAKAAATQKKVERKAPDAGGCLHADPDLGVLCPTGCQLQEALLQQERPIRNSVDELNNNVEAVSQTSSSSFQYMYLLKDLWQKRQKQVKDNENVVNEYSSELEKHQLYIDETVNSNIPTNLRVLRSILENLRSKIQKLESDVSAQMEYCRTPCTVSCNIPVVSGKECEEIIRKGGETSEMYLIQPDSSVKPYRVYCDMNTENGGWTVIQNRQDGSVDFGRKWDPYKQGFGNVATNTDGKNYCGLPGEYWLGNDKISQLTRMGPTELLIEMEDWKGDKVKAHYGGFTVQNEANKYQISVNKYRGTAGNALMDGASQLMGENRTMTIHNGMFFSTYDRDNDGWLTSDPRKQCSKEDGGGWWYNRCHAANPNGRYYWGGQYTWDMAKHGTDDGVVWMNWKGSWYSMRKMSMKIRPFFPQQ
T1 sequence (P02671 20-629 partner limits assumed): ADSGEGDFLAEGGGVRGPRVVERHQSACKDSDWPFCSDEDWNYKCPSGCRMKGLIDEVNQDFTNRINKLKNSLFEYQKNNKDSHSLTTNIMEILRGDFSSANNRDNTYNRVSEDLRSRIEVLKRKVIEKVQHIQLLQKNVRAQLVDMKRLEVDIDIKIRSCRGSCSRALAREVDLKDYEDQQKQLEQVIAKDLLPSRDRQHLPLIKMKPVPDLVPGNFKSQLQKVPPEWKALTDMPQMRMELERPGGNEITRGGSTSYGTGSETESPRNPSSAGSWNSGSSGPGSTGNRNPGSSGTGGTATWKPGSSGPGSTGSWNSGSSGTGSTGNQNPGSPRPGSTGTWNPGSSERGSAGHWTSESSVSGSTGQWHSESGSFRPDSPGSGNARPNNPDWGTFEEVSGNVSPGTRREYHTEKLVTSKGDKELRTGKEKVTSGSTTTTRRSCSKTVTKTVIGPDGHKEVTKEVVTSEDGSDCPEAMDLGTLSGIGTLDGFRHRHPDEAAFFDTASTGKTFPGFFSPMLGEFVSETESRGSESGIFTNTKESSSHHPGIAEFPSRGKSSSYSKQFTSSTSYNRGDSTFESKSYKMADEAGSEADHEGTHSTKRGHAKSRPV

fibrinogen [2] = molecular target: T1, fibrinogen; experiment: Clotting activity of dendrimer extracted from gamma-irradiated gelatin paste; format: biochemical; settings: paste with SURGIFLO, extract about 0.25 mg/ml, fibrinogen 3 mg/ml, 37° C
Experimental: 2 ml of solution of Peptide Dendrimer No. 12 or 13 was mixed with SURGIFLO Haemostatic Matrix (a hydrated flowable gelatin matrix) to form a paste of each peptide. Each paste was sterilised by irradiation with ^60Co gamma rays at a dose of 30 kGy, and then stored at room temperature. Samples of the sterilised pastes were used for testing after storage for two and four weeks.
After storage, peptide dendrimers were extracted from each paste using 10 mM HEPES buffer. 30 μL of each extract (with a peptide concentration of about 0.25 mg/ml) was added to 100 μL of human fibrinogen at 3 mg/ml, and the ability of each dendrimer to polymerise fibrinogen (the ‘clotting’ activity) at 37° C. was determined using a Sigma Amelung KC4 Delta coagulation analyser. The polymerisation activity of non-irradiated control samples was also determined.

[3] = molecular target: T2, purified human fibrinogen (Homo sapiens, UniProt P02675+P02679); experiment: Co-polymerisation with purified human fibrinogen, clotting time (Sigma Amelung KC4 Delta coagulation analyser); format: biochemical
T2 sequence (P02679 27-453): T1 sequence (P02679 27-453)
T2 sequence (P02675 31-491): T1 sequence (P02675 31-491)
T2 sequence (P02671 20-629 partner limits assumed): T1 sequence (P02671 20-629 partner limits assumed)
Experimental: The ability of Peptide Dendrimer No. 12 to polymerise fibrinogen was assessed. 30 μl of dendrimer in solution, at concentration ranging from 0.005-2 mg/ml, was added to 100 μl purified human fibrinogen at 3 mg/ml (the level of fibrinogen found in the blood). Polymerisation of fibrinogen was analysed using a Sigma Amelung KC4 Delta coagulation analyser.
The ability of Peptide Dendrimer Nos. 4, 5, 10, 11, and 12 to copolymerise with fibrinogen was assessed using the same method described in Example 11. The concentration of each dendrimer was varied from 0.005-0.5 mg/ml.
The ability of the dendrimers to copolymerise with fibrinogen was assessed using the same method described in Example 11, for a concentration of each dendrimer ranging from 0.005-0.5mg/ml.
The ability of the dendrimers to copolymerise with fibrinogen was assessed using the same method described in Example 11, for a concentration of each dendrimer ranging from 0.005-0.5 mg/ml.
Peptide Conjugate No. 1 or 2 (2 mg/ml) was mixed with Peptide Dendrimer No. 3 or 4, and fibrinogen, and the ability of the mixtures to copolymerise with fibrinogen was assessed using the same method described in Example 11, for a concentration of each dendrimer ranging from 0.025-0.5 mg/ml.

[4] = molecular target: T3, fibrinogen in human plasma (Homo sapiens, UniProt P02675+P02679); experiment: Polymerisation of fibrinogen in human plasma (KC4 Delta coagulation analyzer); format: biochemical; settings: 30 μL dendrimer 0.25 mg/ml added to 100 μL human plasma, 37° C
T3 construct: from tissue; host or cells: human plasma
T3 sequence (P02679 27-453): T1 sequence (P02679 27-453)
T3 sequence (P02675 31-491): T1 sequence (P02675 31-491)
T3 sequence (P02671 20-629 partner limits assumed): T1 sequence (P02671 20-629 partner limits assumed)
Experimental: The ability of several different peptide dendrimers (Nos. 4, 5, 8, 9, 10, 11, 12, 13) to polymerise fibrinogen in human plasma was tested.
30 μL of each dendrimer (at a concentration of 0.25 mg/ml) was added to 100 μL human plasma at 37° C., and polymerisation of fibrinogen was determined using a Sigma Amelung KC4 Delta coagulation analyzer.

Substance: GHRPY
- binding preference for hole 'a' / hole 'b' of fibrinogen (fibrinogen [1]): binds strongly and preferentially to the ‘b’ hole of fibrinogen

Substance: GPRP
- binding preference for hole 'a' / hole 'b' of fibrinogen (fibrinogen [1]): binds strongly and preferentially to the ‘a’ hole of fibrinogen

Substance: GPRPFPA
- binding preference for hole 'a' / hole 'b' of fibrinogen (fibrinogen [1]): binds with high preference for hole ‘a’ in fibrinogen

Substance: GPRPG
- binding preference for hole 'a' / hole 'b' of fibrinogen (fibrinogen [1]): binds to hole ‘a’ and hole ‘b’ of fibrinogen, but with some preference for hole ‘a’

Substance: Peptide Dendrimer No. 12 (peptide GPRPG; chain KKKKK)
- Clotting activity (seconds), Storage for 2 weeks post irradiation (fibrinogen [2]; 30 kGy gamma, 2 weeks room temperature): 1 s
- Clotting activity (seconds), Storage for 4 weeks post irradiation (fibrinogen [2]; 30 kGy gamma, 4 weeks room temperature): 1 s
- Clotting activity (seconds), Non-irradiated control (fibrinogen [2]; not irradiated): 1 s
- ability to copolymerise with fibrinogen ([3]; dendrimer 0.005-2 mg/ml, fibrinogen 3 mg/ml): able to copolymerise with fibrinogen almost instantaneously
- clotting ([3]; dendrimer in the range ~0.02-0.5 mg/ml): almost instantaneous clotting
- ability to polymerise fibrinogen in human plasma [4]: able to polymerise fibrinogen in human plasma
- clotting time [4]: less than one second
